Laboratory results: the supplement of paper PMC9170038

Experiments:
MS2 coat protein [1] = assay: apparent KD of MS2 coat protein, switch ON state; designed switch direction (-1 OFF switch, 1 ON switch): -1; higher = weaker reporter binding; conditions: FMN input: 0 or 200 uM; Eterna round: R93 (includes R88 designs)
Method in brief: (§1)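 Illumina sequencing clusters served as templates for on-chip transcription of the designed RNA switches. SNAP-549-labelled MS2 coat protein was then titrated in twofold steps from 0.7 or 1.5 nM to 3 µM, allowing 0.8–1.5 h per step at first and 10–20 min per step later. The buffer held 100 mM Tris-HCl pH 7.5, 80 mM KCl and 4 mM MgCl2, without or with constant ligand. Apparent KD is the median per design of normalised cluster binding-curve fits.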

MS2 coat protein [2] = assay: apparent KD of MS2 coat protein, switch OFF state (with FMN for OFF switches, without FMN for ON switches); designed switch direction (-1 OFF switch, 1 ON switch): -1; higher = weaker reporter binding; conditions: FMN input: 0 or 200 uM; Eterna round: R93 (includes R88 designs)
Method in brief: as §1

| Sequence | apparent KD of MS2 coat protein (MS2 coat protein [1]) | apparent KD of MS2 coat protein (MS2 coat protein [2]) |
| --- | --- | --- |
| AAGAACAGAGGAUAUACAUGAGGAUCACCCAUGUAAAAGAAAGAAGGGAAAGAGAAAAGUAGAAGGCUGAAGAA [Titaru] | 25 nM | 31.7 nM |
| AGGGAACAUGAGGAUCACCCAUGUGAGGAUAUAGAAAAGAAAAGAAAAGAAAGAAGAACUAGAAGGUACAAGAA [Merenre Nemtyemsaf I] | 26.1 nM | 30 nM |
| GAAAAGUCAGGAUAUAUAGGAAAAAUAAAAAAAAUAAAACUAUAGAAGGGACAUGAGGAUCACCCAUGUUAAAG [Mat - Exclusion 4 - Mayanna - D132] | 44.5 nM | 25.5 nM |
| GGUUGAGAAGGAUAUACAUGAGGAUCACCCAUGUGAGAGAAAAAAGUGAGAAAGAAAAGUAGAAGGUCUUGACG [salish99-ex3-63] | 29 nM | 95.9 nM |
| AAGAAACAUGAGGAUCACCCAUGUCAGGAUAUCUAAAAGAAAAGAAAAGAAAGAAGAAAGAGAAGGGACAAAGG [Neferirkare] | 39.2 nM | 61.3 nM |
| AACAUGUCAGGAUAUUUAAGAAAAGAAAAGAAAGAAAAGAAAAAGAAGGGACAUGAGGAUCACCCAUGUAAGAA [EteRNA is fun!] | 117 nM | 56.8 nM |
| AUAAAACAUGAGGAUCACCCAUGUGAGGAUAUGCGAAAUAAUGAAUAAAGAAAUAAAAGCAGAAGGCACAAAAA [LROPPY Exclusion 1 - v05_deltaG=1.64 break up some As mixed] | 32.8 nM | 28.9 nM |
| AGCACGUCAGGAUAUACGAACACAAAGGGUAACAACAAGGGACAUGAGGAUCACCCAUGUAGAAGGGACUAGCA [Diamond 96] | 58.2 nM | 61.9 nM |
| AAAAAACAUGAGGAUCACCCAUGUGAGGAUAUUGGUAUUCAAGAAACCCUCUUAAUAGCGAGAAGGCGCAAAAA [Brourd 613 Mod 18 - Jieux - Exclusion 1] | 22.2 nM | 19.8 nM |
| CUCAAGUGAGGAUAUACAAAAAGUAAAUAAGUAAAACAAAAGUAGAAGGCACAUGAGGAUCACCCAUGUAAAUA [JR_Exc004_Sub301] | 45.5 nM | 63.1 nM |
| AAAAAGGGAGGAUAUACAGGAGGUAAGGAAAAAAAAAAAAAACAUGAGGAUCACCCAUGUAGAAGGCUUAAAAA [Ecls2-IV] | 30.3 nM | 22 nM |
| GGUUGGCAAGGAUAUACAUGAGGAUCACCCAUGUGAGAGAAAAAAGUGAGAAAGAAAAGUAGAAGGUGUUGACG [salish99-ex3-75] | 26.8 nM | 53 nM |
| AAAAAGUAAGGAUAUAGCAAAGGUCACGAAAGUGACAAAGGCUAGAAGGUACAUGAGGAUCACCCAUGUCCAAA [Fiskers Exclusion 4 D2 63% 3] | 19.9 nM | 17.7 nM |
| GGCUGGCGAGGAUAUACAUGAGGAUCACCCAUGUGAGAGAAAAAAGUGAGAAAGAAAAGUAGAAGGCGCUGGCG [salish99-ex3-55] | 34.1 nM | 81.4 nM |
| AAAAAAAGAGGAUAUACGUACAUGUCAAAAGACGUGAAGGGACAUGAGGAUCACCCAUGUAGAAGGUUUAAAAA [JL Wide Open 30] | 35.5 nM | 16.3 nM |
| AACUGUACAGGAUAUACAUGAGGAUCACCCAUGUGAGAAUUAAGUGGCGAACCACAAAGUAGAAGGGUACAGGA [Mat - Exclusion 3 - JL mod - D16] | 50.3 nM | 138 nM |
| GGUUGAUGAGGAUAUACAUGAGGAUCACCCAUGUGAGAGAAAAAAGUGAGAAAGAAAAGUAGAAGGCAUUGACG [salish99-ex3-60] | 37.7 nM | 69.4 nM |

| Sequence | apparent KD of MS2 coat protein (MS2 coat protein [1]) | apparent KD of MS2 coat protein (MS2 coat protein [2]) |
| --- | --- | --- |
| GGUUGGCGAGGAUAUACAUGAGGAUCACCCAUGUGAGAGAAAAAAGUGUGAAAGAAAAGUAGAAGGCGCUGACG [salish99-ex3-54] | 31 nM | 13 nM |
| AAAACGGCAGGAUAUACAGAAGAGAUCACGAAAAAAAAAAAACAUGAGGAUCACCCAUGUAGAAGGGCCAAAAA [Ex2 Malc#4] | 117 nM | 66.3 nM |
| ACUUGACAUGAGGAUCACCCAUGUCAGGAUAUAGUAGGACAAAUAAAUAAAAGUUCUACUAGAAGGGAUAUGGA [Design 18: G-U+ 3] | 16.7 nM | 15.7 nM |
| AAAAAACAUGAGGAUCACCCAUGUGAGGAUAUGCAAAACCCAUAUAAAAAGGGAAAAAGUAGAAGGCGCAAAAA [wbt round 1 mod 9] | 20.5 nM | 17.4 nM |
| AAAGUACAUGAGGAUCACCCAUGUCAGGAUAUCGUGGCGGGAAAAACCGGGAAACGCACGAGAAGGGACAAAAA [EX1 Malc#18 Mod 13 - Jieux - Exclusion 1] | 36.2 nM | 42 nM |
| AAGAACGUAGGAUAUACAAAAUAAAAGAAAAGAAAGAAAGAACAUGAGGAUCACCCAUGUAGAAGGGCGAAGAA [Sekhemresewadjtawy Sobekhotep III] | 49.5 nM | 39.6 nM |
| UCCGCACAUGAGGAUCACCCAUGUCAGGAUAUACAAGAAAAUCAGGCUAAUGCCUGAAGUAGAAGGGACGAGGA [Armaingean] | 27.7 nM | 16 nM |
| AAAAAUGGAGGAUAUACAUGAGGAUCACCCAUGUGUGGCCAUACUAUGUGGGCGUCAGGUAGAAGGCCAAAAAA [Gilly Gone Silly 24 - Jieux - Exclusion 3] | 22.3 nM | 56 nM |
| AAAAAACAUGAGGAUCACCCAUGUGAGGAUAUCCUGGUUGAAAAAAAAAAAACAACCAGGAGAAGGCACAAAAA [EXCL-I] | 45.2 nM | 57.8 nM |
| AACAAGUCAGGAUAUGCGAACAGAAAAUAAGCUACACAAAAGCAGAAGGGACAUGAGGAUCACCCAUGUAAAUA [JR_Exc004_Sub501] | 49.9 nM | 29.8 nM |
| AACAUGUGAGGAUAUAAAAGAAAAGAAAAGAAAGAAAAGAAUUAGAAGGCACAUGAGGAUCACCCAUGUAAGAA [EteRNA is fun!] | 28.2 nM | 31.9 nM |
| AAAAUACGAGGAUAUACAUGAGGAUCACCCAUGUCAAAAAAUGACUACACAAAAGAAAGUAGAAGGCGUAAAAA [Ex 3 May 16] | 25.3 nM | 30.4 nM |
| AGUCAGAGAGGAUAUACAUGAAAAAAAAAAGUAAGAUCCCUACAUGAGGAUCACCCAUGUAGAAGGCUCUGACA [Ex2 Design 137: Sub-opt 1] | 60.5 nM | 26.8 nM |
| ACAGUUACAGGAUAUACAUAGGAAAAAAAAAAAAAAAUUCAACAUGAGGAUCACCCAUGUAGAAGGGUAACUGA [Ex2 Design 173: Random 2B] | 93.3 nM | 144 nM |
| AGCAAACAUGAGGAUCACCCAUGUCAGGAUAUGAACGAAAUAAAUAAAAAAUAAAAGUUCAGAAGGGACGAGCA [Mat - Exclusion 1 - Eli mod - D25] | 32.4 nM | 42.9 nM |
| AAGAAGGUAGGAUAUACAAAAUAAAAGAAAAGAAAGAAAGAACAUGAGGAUCACCCAUGUAGAAGGACCAAGAA [Khutawyre Wegaf] | 34.3 nM | 17.7 nM |
